The results in this text go back to US9994616B2, “c-Met protein agonist” (The University of Tokyo, priority 2013, dated 2018).

pKd: −log10 of the molar value. Where a SMILES comes first, the peptide text is derived from it. Bridges are numbered along the chain shown (N, C = ends). Roman numbers before positions name the chains, in order. Where no end group is shown, it is not given here. [ ]: non-standard residue; d: D form. NMeW = CN[C@@H](Cc1c[nH]c2ccccc12)C(=O)O; NMeH = CN[C@@H](Cc1c[nH]cn1)C(=O)O; NMeE = CN[C@@H](CCC(=O)O)C(=O)O; NMeQ = CN[C@@H](CCC(N)=O)C(=O)O; NMeD = CN[C@@H](CC(=O)O)C(=O)O; NMeN = CN[C@@H](CC(N)=O)C(=O)O; NMeL = CN[C@@H](CC(C)C)C(=O)O; NMeV = CN[C@H](C(=O)O)C(C)C; βAla = NCCC(=O)O

The target of one assay is c-Met-Fc (Homo sapiens, UniProt P08581). The assay is described as follows: Binding ability by surface plasmon resonance (SPR, Biacore). The settings on record: for kon: read-out: ka. How it is done: Binding ability of the thioether macrocyclic peptide was evaluated by SPR measurement using Biacore (GE Healthcare).
As a sensor chip, Sensor Chip CM5 was used and an anti-IgG antibody was immobilized on a measurement lane and a control lane by using Human Antibody Capture Kit.
On the measurement lane was immobilized c-Met-Fc, while on the control lane was immobilized Fc protein.
As a running buffer, HBS-EP+ buffer containing 0.1% DMSO was used and a dissociation constant of the thioether macrocyclic peptide was calculated at 5 different concentrations by using the single-kinetics method.

The next assay deals with T1, c-Met (Homo sapiens, UniProt P08581).
T1 construct: endogenous in cells; host or cells: EHMES-1 (human mesothelioma)
Description: Activity of dimeric peptide by ELISA (c-Met phosphorylation level in EHMES-1 cells). It counts as cell-based. The settings on record: for Activity (c-Met phosphorylation level by ELISA): Table 12, EHMES-1 cells, 10 minutes stimulation; for c-Met phosphorylation: Table 13. How it is done: Each dimeric peptide was added to human EHMES-1 cells and the mixture was incubated for 10 minutes to stimulate the cells.
As a control experiment, a recombinant human HGF protein was added and the mixture was incubated for 10 minutes to stimulate cells.
A phosphorylation level of c-Met was quantitatively analyzed using ELISA.

[1] abbreviates: Table 11, monomer and dimeric peptides.

Sequence of c-Met-Fc (P08581 with tags, fused parts or gaps limits assumed): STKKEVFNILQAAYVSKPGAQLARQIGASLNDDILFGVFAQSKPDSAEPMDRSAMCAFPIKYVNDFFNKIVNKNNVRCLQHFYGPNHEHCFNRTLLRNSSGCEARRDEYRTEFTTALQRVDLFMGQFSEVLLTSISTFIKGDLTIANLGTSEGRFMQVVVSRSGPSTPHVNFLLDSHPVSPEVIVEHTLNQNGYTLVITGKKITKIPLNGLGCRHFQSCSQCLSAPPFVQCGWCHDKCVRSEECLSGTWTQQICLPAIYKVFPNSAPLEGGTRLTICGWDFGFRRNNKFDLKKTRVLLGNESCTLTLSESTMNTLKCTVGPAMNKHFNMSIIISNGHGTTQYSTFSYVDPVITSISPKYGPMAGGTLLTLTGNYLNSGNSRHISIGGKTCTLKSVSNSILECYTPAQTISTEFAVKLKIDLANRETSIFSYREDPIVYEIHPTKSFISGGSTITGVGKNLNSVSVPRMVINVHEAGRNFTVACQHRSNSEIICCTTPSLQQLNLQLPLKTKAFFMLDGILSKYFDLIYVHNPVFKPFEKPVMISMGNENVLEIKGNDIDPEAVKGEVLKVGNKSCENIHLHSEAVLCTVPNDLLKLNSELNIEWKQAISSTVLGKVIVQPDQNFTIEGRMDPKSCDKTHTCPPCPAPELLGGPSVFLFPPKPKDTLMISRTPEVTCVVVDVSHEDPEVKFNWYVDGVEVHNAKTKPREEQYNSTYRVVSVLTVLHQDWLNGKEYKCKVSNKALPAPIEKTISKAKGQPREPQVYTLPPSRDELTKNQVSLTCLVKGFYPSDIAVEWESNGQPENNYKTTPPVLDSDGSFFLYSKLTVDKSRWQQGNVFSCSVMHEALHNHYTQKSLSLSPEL
Sequence of c-Met-Fc (P08581 25-307 limits assumed): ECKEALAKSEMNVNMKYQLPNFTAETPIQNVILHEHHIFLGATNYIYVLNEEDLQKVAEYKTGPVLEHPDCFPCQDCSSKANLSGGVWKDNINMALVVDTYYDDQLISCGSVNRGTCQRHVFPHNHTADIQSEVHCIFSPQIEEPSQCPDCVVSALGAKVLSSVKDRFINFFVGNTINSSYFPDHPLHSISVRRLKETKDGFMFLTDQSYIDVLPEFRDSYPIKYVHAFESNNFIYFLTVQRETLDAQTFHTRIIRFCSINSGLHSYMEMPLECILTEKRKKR
T1 sequence (P08581 25-1390): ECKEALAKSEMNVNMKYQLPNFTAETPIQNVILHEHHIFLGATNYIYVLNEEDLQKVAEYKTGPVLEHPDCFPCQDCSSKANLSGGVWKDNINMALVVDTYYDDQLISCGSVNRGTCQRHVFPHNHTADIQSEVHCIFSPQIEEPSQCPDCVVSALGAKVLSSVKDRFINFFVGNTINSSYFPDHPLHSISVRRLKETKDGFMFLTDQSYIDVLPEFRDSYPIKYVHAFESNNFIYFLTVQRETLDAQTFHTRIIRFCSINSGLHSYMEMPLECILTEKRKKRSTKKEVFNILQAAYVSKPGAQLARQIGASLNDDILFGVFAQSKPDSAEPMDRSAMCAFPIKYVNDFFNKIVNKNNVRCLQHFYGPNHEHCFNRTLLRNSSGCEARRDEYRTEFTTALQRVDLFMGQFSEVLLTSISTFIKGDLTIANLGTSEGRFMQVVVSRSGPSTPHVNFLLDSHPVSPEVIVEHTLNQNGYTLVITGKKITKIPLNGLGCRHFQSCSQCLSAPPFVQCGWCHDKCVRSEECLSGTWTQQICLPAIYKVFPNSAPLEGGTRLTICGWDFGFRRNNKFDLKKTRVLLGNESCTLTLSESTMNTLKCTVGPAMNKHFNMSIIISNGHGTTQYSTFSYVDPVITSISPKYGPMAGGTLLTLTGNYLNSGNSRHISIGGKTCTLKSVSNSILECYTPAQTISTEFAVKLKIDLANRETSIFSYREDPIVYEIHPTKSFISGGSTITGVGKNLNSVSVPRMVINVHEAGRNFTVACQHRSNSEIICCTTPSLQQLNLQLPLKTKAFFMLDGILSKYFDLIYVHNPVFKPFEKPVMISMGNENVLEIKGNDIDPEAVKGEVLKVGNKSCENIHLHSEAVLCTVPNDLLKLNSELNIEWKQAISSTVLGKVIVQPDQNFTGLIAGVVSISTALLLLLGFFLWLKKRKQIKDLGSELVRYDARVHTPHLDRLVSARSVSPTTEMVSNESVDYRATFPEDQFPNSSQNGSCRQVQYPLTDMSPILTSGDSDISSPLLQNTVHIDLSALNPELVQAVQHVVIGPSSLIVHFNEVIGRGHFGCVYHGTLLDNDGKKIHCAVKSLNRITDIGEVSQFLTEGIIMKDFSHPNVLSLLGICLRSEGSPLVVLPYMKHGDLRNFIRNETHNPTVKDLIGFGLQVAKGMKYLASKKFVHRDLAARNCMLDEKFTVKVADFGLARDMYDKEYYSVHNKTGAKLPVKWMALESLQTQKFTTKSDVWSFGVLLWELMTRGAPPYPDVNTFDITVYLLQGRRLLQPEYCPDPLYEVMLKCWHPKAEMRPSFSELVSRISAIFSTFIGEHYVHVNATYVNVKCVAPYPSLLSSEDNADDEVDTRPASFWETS

Consider `CC(C)C[C@@H]1NC(=O)[C@H](CC(N)=O)NC(=O)[C@H](Cc2c[nH]c3ccccc23)NC(=O)[C@H](C(C)C)N(C)C(=O)[C@H](CCC(=O)O)NC(=O)[C@H](Cc2c[nH]cn2)NC(=O)[C@H]([C@@H](C)O)NC(=O)[C@H](CCCNC(=N)N)NC(=O)[C@H](CCCNC(=N)N)NC(=O)[C@H](CC(N)=O)NC(=O)[C@H](Cc2ccccc2)NC(=O)[C@H](CCC(N)=O)NC(=O)[C@H](CCCNC(=N)N)NC(=O)[C@@H](Cc2ccc(O)cc2)NC(=O)CSC[C@@H](C(=O)NCC(N)=O)NC(=O)[C@H](CC(=O)O)NC1=O` [Peptide N11] ({CH2CO}-[dY]RQFNRRTHE[NMeV]WNLDCG-NH2; thioether N-16; C-terminus assumed), for which the kon on c-Met-Fc (Table 8, c-Met-Fc) was 15000 M⁻¹ s⁻¹.

For the compound `CC(C)C[C@@H]1NC(=O)[C@H](CC(N)=O)NC(=O)[C@H](Cc2c[nH]c3ccccc23)N(C)C(=O)[C@H](C(C)C)NC(=O)[C@H](CCC(=O)O)NC(=O)[C@H](Cc2c[nH]cn2)NC(=O)[C@H]([C@@H](C)O)NC(=O)[C@H](CCCNC(=N)N)NC(=O)[C@H](CCCNC(=N)N)NC(=O)[C@H](CC(N)=O)NC(=O)[C@H](Cc2ccccc2)NC(=O)[C@H](CCC(N)=O)NC(=O)[C@H](CCCNC(=N)N)NC(=O)[C@@H](Cc2ccc(O)cc2)NC(=O)CSC[C@@H](C(=O)NCC(N)=O)NC(=O)[C@H](CC(=O)O)NC1=O` [Peptide N12] ({CH2CO}-[dY]RQFNRRTHEV[NMeW]NLDCG-NH2; thioether N-16; C-terminus assumed), the kon at c-Met-Fc (Table 8, c-Met-Fc) was 55000 M⁻¹ s⁻¹.

Take `CC(C)C[C@@H]1NC(=O)[C@H](CC(N)=O)NC(=O)[C@H](Cc2c[nH]c3ccccc23)NC(=O)[C@H](C(C)C)NC(=O)[C@H](CCC(=O)O)NC(=O)[C@H](Cc2c[nH]cn2)NC(=O)[C@H]([C@@H](C)O)NC(=O)[C@H](CCCNC(=N)N)NC(=O)[C@H](CCCNC(=N)N)NC(=O)[C@H](CC(N)=O)NC(=O)[C@H](Cc2ccccc2)NC(=O)[C@H](CCC(N)=O)NC(=O)[C@H](CCCNC(=N)N)NC(=O)[C@@H](Cc2ccc(O)cc2)NC(=O)CSC[C@@H](C(=O)NCC(N)=O)NC(=O)[C@H](CC(=O)O)N(C)C1=O` [Peptide N15] ({CH2CO}-[dY]RQFNRRTHEVWNL[NMeD]CG-NH2; thioether N-16; C-terminus assumed): the kon on c-Met-Fc (Table 8, c-Met-Fc) came to 300000 M⁻¹ s⁻¹.

As to “D4-3 Bis-MAL-PEG3: dimeric peptide: two D4-3 macrocycles linked through C-terminal Cys by Bis-MAL-PEG3 linker ({CH2CO}-[dY]RQFNRRTHEVWNLDCGC; thioether N-16; not fully specified (residue 18); also: dimer: two copies joined by Bis-MAL-PEG3, linker at 18 via Bis-MAL-PEG3, other end not in the chain)”, in the assay with c-Met-Fc (setting [1]), the ka is 1.1 10^6 M^−1s^−1 and the kd is 0.070 10^−2 s^−1. In addition, in the assay with c-Met, the “Activity (c-Met phosphorylation level by ELISA)” value (“Activity” for short) is “Low” and the c-Met phosphorylation result is on record as “Promote”.

Consider “D5-4 Bis-MAL-PEG3: dimeric peptide: two D5-4 macrocycles linked through C-terminal Cys by Bis-MAL-PEG3 linker (peptide 1 {CH2CO}-[dY]WYYAWDQTYKAFPCG; peptide 2 {CH2CO}-[dY]WYYAWDQTYKAFPCG; thioether I:N-I:15, II:N-II:15; not fully specified (C-terminus); also: dimer: two chains joined by Bis-MAL-PEG3 through an added C-terminal Cys not in the letters)”, for which, in the assay with c-Met-Fc (setting [1]), the ka is listed as 0.12 10^6 M^−1s^−1 and the kd is 0.054 10^−2 s^−1. Further, in the assay with c-Met, the “Activity” value was “High” and the c-Met phosphorylation result was “Promote”.

In the case of “L5-2 Bis-MAL-PEG11: dimeric peptide: two L5-2 macrocycles linked through C-terminal Cys by Bis-MAL-PEG11 linker ({CH2CO}-YISWNEFNSPNWRFITCG[βAla]C-NH2; thioether N-17; not fully specified (residue 20); also: dimer: two copies joined by Bis-MAL-PEG11, linker at 20 via Bis-MAL-PEG11, other end not in the chain)”, in the assay with c-Met-Fc (setting [1]), the ka is on record as 0.098 10^6 M^−1s^−1 and the kd was 0.031 10^−2 s^−1. For the same compound, in the assay with c-Met, the “Activity” value was “Low” and the c-Met phosphorylation entry is given as “Promote”.

Consider “N3: N-methylated peptide of D4-3 ({CH2CO}-[dY]R[NMeQ]FNRRTHEVWNLDC-NH2; thioether N-16; also: bridge 1-16 listed as disulfide) [Peptide N3]”, for which, in the assay with c-Met-Fc (Table 8, c-Met-Fc), the pKd is 6.92, the ka is recorded as 0.27 10^5 M^−1s^−1 and the kd is reported as 0.31 10^−2 s^−1.

“N5: N-methylated peptide of D4-3 ({CH2CO}-[dY]RQF[NMeN]RRTHEVWNLDC-NH2; thioether N-16; also: bridge 1-16 listed as disulfide) [Peptide N5]”: in the assay with c-Met-Fc (Table 8, c-Met-Fc), the pKd is 6.70, the ka was 0.19 10^5 M^−1s^−1 and the kd is listed as 0.39 10^−2 s^−1.

Take “N9: N-methylated peptide of D4-3 ({CH2CO}-[dY]RQFNRRT[NMeH]EVWNLDC-NH2; thioether N-16; also: bridge 1-16 listed as disulfide) [Peptide N9]”: the KD result with c-Met-Fc (Table 8, c-Met-Fc) is on record as “Not binding”.

Take “N10: N-methylated peptide of D4-3 ({CH2CO}-[dY]RQFNRRTH[NMeE]VWNLDC-NH2; thioether N-16; also: bridge 1-16 listed as disulfide) [Peptide N10]”: in the assay with c-Met-Fc (Table 8, c-Met-Fc), the negative-log Kd (pKd) is 6.52, the ka was 0.25 10^5 M^−1s^−1 and the kd is recorded as 0.75 10^−2 s^−1.

Regarding “N14: N-methylated peptide of D4-3 ({CH2CO}-[dY]RQFNRRTHEVWN[NMeL]DC-NH2; thioether N-16; also: bridge 1-16 listed as disulfide) [Peptide N14]”, in the assay with c-Met-Fc (Table 8, c-Met-Fc), the pKd is 6.54, the ka is recorded as 0.21 10^5 M^−1s^−1 and the kd is 0.59 10^−2 s^−1.
